Assay [1] deals with Gαq/i (chimera between Gαq and Gαi), as used in fluorescence polarisation. In words: fluorescence polarisation; direct binding of HTH peptide and Gαq/i; conditions not given.
In assay [2] the target is HTH peptide of PLC-β3 with the mutations I860A and V866W, expressed on the surface of yeast. The assay is described as follows: flow cytometry on cells; yeast surface titration: yeast displaying the construct, biotinylated Gαq/i 1 nM to 7.5 μM with AlF4-, 1 h on ice, streptavidin-phycoerythrin; 10 mM HEPES pH 8.0, 150 mM NaCl, 10 mM MgCl2, 30 μM AlCl3, 10 mM NaF, 0.1% BSA; one-step isotherm, apparent KD. For orientation: Flow cytometry measures light scatter and fluorescence of single cells or particles in a stream.

Assay [3] addresses 171L-graft, displayed on yeast (phage T4) (UniProt P00720). Described as above.
In assay [4] the target is 1EBB-graft, displayed on yeast (Geobacillus stearothermophilus). The description is as above.

Some results are limits rather than exact numbers.

As for “TAMRA-labeled HTH peptide (I860A) derived from PLC-β3”, in assay [1], the Kd was determined as 400 nM.

In the case of “biotinylated Gαq/i (chimera between Gαq and Gαi, with C-terminal avitag)”, the Kd in assay [2] was found to be 400 nM; in assay [3], 1700 nM; in assay [4] it was 2000 nM.

In assay [1], “soluble HTH peptide of PLC-β3 with the V866W mutation” displayed a Kd of 290 nM and a fold increase of affinity against the original HTH peptide greater than 14 fold.

The values are drawn from article PMC8633581.
